# Source: the supplement of paper PMC7125110
# ± gives the standard error. Fewer inactive variants are shown than the library holds.
# B1: glmS ribozyme (parent)
# chain: AUAAAAGCGCCAGAACUACAGAAAUGUAGUUGACGAGGAGGAGGUUUAUCGAAUUUUCGGCGGAUGCCUCCAAA
# Assays:
# Settings in all cases: with glucosamine-6-phosphate
# [1] = variants of: B1; test: self-cleavage kobs at 40 uM GlcN6P; higher = faster cleavage; RNA array
# Summary of the method: (§1)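 Barcoded glmS ribozyme variants on sequenced MiSeq chips were transcribed in situ by E. coli RNA polymerase and tracked through a hybridised Cy3 probe at 37 °C. Glucosamine-6-phosphate (40 μM to 10 mM) in HEPES/KCl/Mg(OAc)2 buffer was flowed in, and tiles were imaged over ~14 h. Signals were normalised to baseline and to non-cleaving reference variants; per-tile medians were fit to one- or two-exponential decays to give kobs. kcat and KM came from weighted Michaelis–Menten fits across concentrations.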
# [2] = variants of: B1; test: self-cleavage kobs at 160 uM GlcN6P; higher = faster cleavage; RNA array
# Summary of the method: as §1
# [3] = variants of: B1; test: self-cleavage kobs at 640 uM GlcN6P; higher = faster cleavage; RNA array
# Summary of the method: as §1
# [4] = variants of: B1; test: self-cleavage kobs at 2500 uM GlcN6P; higher = faster cleavage; RNA array
# Summary of the method: as §1
# [5] = variants of: B1; test: self-cleavage kobs at 10000 uM GlcN6P; higher = faster cleavage; RNA array
# Summary of the method: as §1
Variant,self-cleavage kobs at 40 uM GlcN6P [1],self-cleavage kobs at 160 uM GlcN6P [2],self-cleavage kobs at 640 uM GlcN6P [3],self-cleavage kobs at 2500 uM GlcN6P [4],self-cleavage kobs at 10000 uM GlcN6P [5]
U55A C68U,0.000668 ± 0.00012 s⁻¹,0.000841 ± 0.00019 s⁻¹,0.00148 ± 0.00045 s⁻¹,0.00477 ± 0.00099 s⁻¹,0.0158 ± 0.004 s⁻¹
G59C C68U,< 1e-05 s⁻¹,–,–,–,–
G51A G62C C67A,< 1e-05 s⁻¹,–,–,–,< 1e-05 s⁻¹
A52G G62C,< 1e-05 s⁻¹,< 1e-05 s⁻¹,< 1e-05 s⁻¹,–,< 1e-05 s⁻¹
G59C U65A,< 1e-05 s⁻¹,< 1e-05 s⁻¹,< 1e-05 s⁻¹,–,< 1e-05 s⁻¹
G59C U65G,< 1e-05 s⁻¹,–,< 1e-05 s⁻¹,–,< 1e-05 s⁻¹
G51U G62C,< 1e-05 s⁻¹,–,< 1e-05 s⁻¹,< 1e-05 s⁻¹,< 1e-05 s⁻¹
U54C C71U,0.000802 ± 8.6e-05 s⁻¹,0.00142 ± 0.00023 s⁻¹,0.00401 ± 0.00061 s⁻¹,0.0101 ± 0.0027 s⁻¹,0.036 ± 0.0094 s⁻¹
G51C C61A,< 1e-05 s⁻¹,–,< 1e-05 s⁻¹,< 1e-05 s⁻¹,< 1e-05 s⁻¹
A52C U55A,< 1e-05 s⁻¹,–,–,–,3.4e-05 ± 1.3e-05 s⁻¹
U57C G62U U65C,< 1e-05 s⁻¹,–,–,–,< 1e-05 s⁻¹
U56C U69C C70A,< 1e-05 s⁻¹,< 1e-05 s⁻¹,< 1e-05 s⁻¹,< 1e-05 s⁻¹,< 1e-05 s⁻¹
U57G G62A,< 1e-05 s⁻¹,–,–,–,< 1e-05 s⁻¹
G51C G59U,< 1e-05 s⁻¹,< 1e-05 s⁻¹,< 1e-05 s⁻¹,–,–
A6C C34U U56C,–,< 1e-05 s⁻¹,–,–,–
G62A C67U,< 1e-05 s⁻¹,–,–,< 1e-05 s⁻¹,< 1e-05 s⁻¹
A52C U56C,< 1e-05 s⁻¹,–,–,< 1e-05 s⁻¹,–
G51C G60U A64U,< 1e-05 s⁻¹,–,–,–,–
A1U U2G A3G A5U A14C U69C,–,5.02e-05 ± 1.8e-05 s⁻¹,0.000257 ± 6e-05 s⁻¹,0.000526 ± 0.00012 s⁻¹,–
A6C A15U,–,< 1e-05 s⁻¹,–,–,–
U65A C71A,5.65e-05 ± 2.4e-05 s⁻¹,–,–,0.0012 ± 0.00041 s⁻¹,0.00104 ± 0.00039 s⁻¹
U54G G62C,< 1e-05 s⁻¹,< 1e-05 s⁻¹,< 1e-05 s⁻¹,< 1e-05 s⁻¹,< 1e-05 s⁻¹
C68U C70A C71U,< 1e-05 s⁻¹,–,–,< 1e-05 s⁻¹,< 1e-05 s⁻¹

Variant,self-cleavage kobs at 40 uM GlcN6P [1],self-cleavage kobs at 160 uM GlcN6P [2],self-cleavage kobs at 640 uM GlcN6P [3],self-cleavage kobs at 2500 uM GlcN6P [4],self-cleavage kobs at 10000 uM GlcN6P [5]
A52U G63C A64U,< 1e-05 s⁻¹,–,–,< 1e-05 s⁻¹,–
A53C U57C,< 1e-05 s⁻¹,–,–,4.1e-05 ± 1.6e-05 s⁻¹,4.63e-05 ± 1.2e-05 s⁻¹
G62A A64C,< 1e-05 s⁻¹,< 1e-05 s⁻¹,< 1e-05 s⁻¹,< 1e-05 s⁻¹,< 1e-05 s⁻¹
G60C G66U,< 1e-05 s⁻¹,–,< 1e-05 s⁻¹,< 1e-05 s⁻¹,–
A53U U54A C68U,0.00036 ± 9.6e-05 s⁻¹,–,–,–,0.013 ± 0.0042 s⁻¹
C61A U65C C70U,< 1e-05 s⁻¹,–,–,–,< 1e-05 s⁻¹
A6G A42C,–,< 1e-05 s⁻¹,< 1e-05 s⁻¹,< 1e-05 s⁻¹,< 1e-05 s⁻¹
G59A G63C,< 1e-05 s⁻¹,< 1e-05 s⁻¹,< 1e-05 s⁻¹,< 1e-05 s⁻¹,–
A6C G35C G41A G62A,–,< 1e-05 s⁻¹,< 1e-05 s⁻¹,–,–
G51A U65A,< 1e-05 s⁻¹,–,–,< 1e-05 s⁻¹,< 1e-05 s⁻¹
G51A U65C,< 1e-05 s⁻¹,–,–,–,< 1e-05 s⁻¹
G60A A64C,< 1e-05 s⁻¹,–,< 1e-05 s⁻¹,–,–
A6C A14G G29C A39C U54A,–,< 1e-05 s⁻¹,< 1e-05 s⁻¹,–,–
C68U C70U C71U,< 1e-05 s⁻¹,–,–,–,–
A53C C58A G60U,< 1e-05 s⁻¹,–,–,–,–
G60U A64U,< 1e-05 s⁻¹,< 1e-05 s⁻¹,–,< 1e-05 s⁻¹,< 1e-05 s⁻¹
A6G A36U G41A U47A C67G,–,< 1e-05 s⁻¹,< 1e-05 s⁻¹,< 1e-05 s⁻¹,–
A52C A64G,< 1e-05 s⁻¹,< 1e-05 s⁻¹,< 1e-05 s⁻¹,–,–
U65G C67A,7.27e-05 ± 1.2e-05 s⁻¹,0.000116 ± 1.9e-05 s⁻¹,0.000435 ± 6.7e-05 s⁻¹,0.00133 ± 0.0004 s⁻¹,0.00417 ± 0.0006 s⁻¹
A53U C71A,0.000169 ± 1.6e-05 s⁻¹,0.000145 ± 3.8e-05 s⁻¹,0.00145 ± 0.00029 s⁻¹,–,0.00487 ± 0.00058 s⁻¹
U55G U65A C67A,6.53e-05 ± 1.8e-05 s⁻¹,–,–,–,9.95e-05 ± 3e-05 s⁻¹
G59U A64U,< 1e-05 s⁻¹,–,< 1e-05 s⁻¹,< 1e-05 s⁻¹,< 1e-05 s⁻¹
U56A C70U C71U,5.46e-05 ± 1.5e-05 s⁻¹,–,8.84e-05 ± 1.7e-05 s⁻¹,0.000232 ± 5.2e-05 s⁻¹,8.85e-05 ± 1.7e-05 s⁻¹
